Paper PMC2953525, “Subtle Alterations in PCNA-Partner Interactions Severely Impair DNA Replication and Repair” (PLoS Biology, 2010)

B1: pol30-Rad30E9: PCNA mutant evolved for Rad30, IDCL sequence DNDWDFLKIDEL (protein)
chain: MLEAKFEEASLFKRIIDGFKDCVQLVNFQCKEDGIIAQAVDDSRVLLVSLEIGVEAFQEYRCDHPVTLGMDLTSLSKILRCGNNTDTLTLIADNTPDSIILLFEDTKKDRIAEYSLKLMDNDWDFLKIDELQYDSTLSLPSSEFSKIVRDLSQLSDSINIMITKETIKFVADGDIGSGSVIIKPFVDMEHPETSIKLEMDQPVDLTFGAKYLLDIIKGSSLSDRVGIRLSSEAPALFQFDLKSGFLQFFLAPKFNDEE
modifications: left off: Gal4 activation domain, end not stated, kept
B2: pol30-Pol32E5: PCNA mutant evolved for Pol32, IDCL sequence DADNDFLKISEL (protein)
chain: MLEAKFEEASLFKRIIDGFKDCVQLVNFQCKEDGIIAQAVDDSRVLLVSLEIGVEAFQEYRCDHPVTLGMDLTSLSKILRCGNNTDTLTLIADNTPDSIILLFEDTKKDRIAEYSLKLMDADNDFLKISELQYDSTLSLPSSEFSKIVRDLSQLSDSINIMITKETIKFVADGDIGSGSVIIKPFVDMEHPETSIKLEMDQPVDLTFGAKYLLDIIKGSSLSDRVGIRLSSEAPALFQFDLKSGFLQFFLAPKFNDEE
modifications: left off: Gal4 activation domain, end not stated, kept
B3: pol30-Rad27E6: PCNA mutant evolved for Rad27, IDCL sequence DGDYDILKIREL (protein)
chain: MLEAKFEEASLFKRIIDGFKDCVQLVNFQCKEDGIIAQAVDDSRVLLVSLEIGVEAFQEYRCDHPVTLGMDLTSLSKILRCGNNTDTLTLIADNTPDSIILLFEDTKKDRIAEYSLKLMDGDYDILKIRELQYDSTLSLPSSEFSKIVRDLSQLSDSINIMITKETIKFVADGDIGSGSVIIKPFVDMEHPETSIKLEMDQPVDLTFGAKYLLDIIKGSSLSDRVGIRLSSEAPALFQFDLKSGFLQFFLAPKFNDEE
modifications: left off: Gal4 activation domain, end not stated, kept

How the values were obtained:
[1] = system: Msh6; test: Yeast two hybrid (Y2H) analysis of PCNA-partner interaction; type: binding; conditions: YRG2 strain, growth on selective agar plates lacking histidine; growth similar to WT PCNA denoted as 1
Description: (§1) For the Y2H assay, we used the YRG2 host strain, shown to be highly efficient in coupling the strength of protein-protein interactions with growth on media lacking histidine. Selected PCNA mutants were characterized for their ability to bind each of 12 main PCNA partners to obtain specificity profiles (Table 1, Table S1, and Figures S4–S5). […] However, in some cases a strong trade-off between the bindings of different partners was observed.
(§2) Y2H analysis was performed using the Yeast Two Hybrid Phagemid vector kit (Stratagene), following the manufacturer's instructions. The pAD-PCNA-WT/mutant plasmids were used as bait while plasmids encoding 12 different PCNA partners (Table 1 and Table S1) were used as prey. The YRG2 host strain (Stratagene) was cotransformed with pAD-PCNA WT/mutant and pBD-partner plasmids in all possible combinations using the LiAC method. Single transformants were grown in liquid SC-Leu-Trp to O.D600 10, washed twice with DDW, and diluted to an initial OD600 of 0.3. A series of 10-fold serial dilutions was then spotted onto selective SC-Leu-Trp-His plates and incubated at 30°C for 3 d. For quantitative Y2H, the generation time of the indicated mutants and their respective partners were calculated from their growth curves in liquid SC-Leu-Trp-His media. Cells were grown overnight in SC-Leu-Trp, washed twice with ddH2O, and diluted by a factor of 1∶50 into 10 ml of pre-warmed SC-Leu-Trp-His. O.D600 measurements of the cultures were taken at the indicated time; the generation time (τ) was calculated from the growth curves according to the equation ODt = OD0×2^t/τ. The generation time calculated for each culture is an average of at least 3 independent experiments.

[2] = system: Pol32; test: as above; type: binding; conditions: for Binding of PCNA Mutants to Target Partners: Pol32 (Y2H): YRG2 strain, growth on selective agar plates lacking histidine, growth similar to WT PCNA denoted as 1
Description: as §1, §2

[3] = system: Ung1; test: as above; type: binding; conditions: YRG2 strain, growth on selective agar plates lacking histidine; growth similar to WT PCNA denoted as 1
Description: as §1, §2

[4] = system: Rad30; test: as above; type: binding; conditions: for Binding of PCNA Mutants to Target Partners: Rad30 (Y2H): YRG2 strain, growth on selective agar plates lacking histidine, growth similar to WT PCNA denoted as 1
Description: as §1, §2

[5] = system: Rad27; test: as above; type: binding; conditions: for Binding of PCNA Mutants to Target Partners: Rad27, fold increase or decrease (quantitative Y2H): footnote c: generation time in liquid selective media lacking histidine relative to cells expressing WT PCNA, average of at least 3 independent experiments
Description: as §1, §2

[6] = system: yeast strains; test: Growth sensitivity of PCNA mutant strains to MMS and HU; type: cell-based; conditions: for effect of overexpression of Rad27, Rad30, Pol32, and Msh6 on growth sensitivity to DNA damaging agents: Figure S9, GAL1/10 inducible GST-tagged partners
Source text: Next, we examined the sensitivity of strains containing single deletions of each of the five different partners on a WT PCNA background. […] We first examined whether the rad27 deletion can suppress the lethality of a strain containing the pol30-Rad27L1 or pol30-Rad27L2 mutants (Figure 6A). […] In addition, we examined whether rad30 deletion, ung1 deletion, and msh6 deletion can suppress the phenotypes of the pol30 mutants with increased affinity to Rad30, Ung1, and Msh6, respectively (Figure 6B–D). […] However, since the suppression of the strain phenotypes was not complete, additional factors, such as minor effects of the mutations on other PCNA-partner interactions, may play a partial role in the sensitivity phenotype of the examined pol30 mutants. […] We also examined whether overexpression of different partners can suppress the growth sensitivity of the pol30 mutants, however no suppression was observed (Figure S9).
(§3) Novel haploids containing PCNA mutants were generated using the plasmid shuffling method. Briefly, a pol30::KanMX magic marker heterozygote diploid strain BY4743 (Open Biosystem) was transformed with plasmid pRS316-POL30. Following dissection of the diploid, a haploid containing the CAN+ gene and plasmid pRS316-POL30 as a sole source of PCNA was generated. This host strain was transformed with selected pRS315-pol30 mutants, plated on SC-Ura-Leu plates, followed by replica plating to SC-Leu+5FOA plates. Haploids, containing PCNA mutants as a sole source, were further verified by plating on either SC-Leu or SC-Ura plates. For testing selected PCNA mutants, a haploid containing rad27::HYG, rad30::HYG, pol32::HYG, msh6::HYG, or ung1::HYG were generated using plasmid pAG32 by conventional genetic approaches. Growth of the PCNA mutant strains in the presence of 120 mM HU (Toronto Research Chemicals) or 0.02% MMS (Sigma) was performed as described. To examine the effects of partner overexpression on pol30 mutant strains, these strains were transformed with various plasmids containing GST-tagged PCNA partner encoding genes under the control of a GAL1/10 inducible promoter, as previously described. Overnight cultures were plated in serial dilutions on SC-Ura containing either glucose or galactose with or without DNA-damaging agents, as described above.

[7] = system: CAN1 gene; test: Spontaneous mutation rate, CAN1 reporter assay, fluctuation analysis; type: cell-based, yeast; conditions: for Spontaneous Mutation Rate Can^R (Fold Increase): Table 1, compared to the WT POL30 strain
Source text: It was previously shown that PCNA contains another site of regulation (i.e. K164) that is modulated by ubiquitination or SUMOylation (Figure 1B) and that is crucial for the recruitment of TLS polymerases,[37]. To test whether the K164 regulatory site is active in the PCNA mutant strains, we examined the spontaneous mutation rate in these strains (Table 1). Increase in spontaneous mutation rate can indicate the recruitment of TLS polymerases to PCNA through K164 ubiquitination,[37]. Alternatively, these mutants can indirectly affect the spontaneous mutation rate by reducing DNA replication processivity and causing replication fork stalling, thereby leading to TLS recruitment. These mutants can also indirectly alter Pol-δ or Pol-ε proofreading leading to TLS recruitment. We measured the spontaneous mutation rate using the CAN1 reporter assay by monitoring the ability of the PCNA mutant strains to grow in the presence of canavanine, a toxic analogue of arginine. […] To examine whether Polζ, the major TLS polymerase,[37], is recruited in vivo to PCNA mutants showing increased affinity for Rad27 and Pol32 (pol30-Rad27E6 and pol30-Pol32E5, Table 1) upon K164 ubiquitination, we measured the spontaneous mutation rates of these mutant strains on the background of either mutated rev3 encoding the catalytic subunit of Polζ or mutated rad18 encoding the K164 ubiquitin ligase or K164R mutation (Figure 7, Table 2).
as §3
The mutation rates for the different pol30 mutant strains described in this study were determined by fluctuation test analysis using the Lea and Coulson method,[48]. The different strains were plated as single colonies on SC-Leu plates and allowed to grow for 3 d at 30°C. At least 25 single colonies from each strain were excised from the plate and resuspended in 1 ml of sterile water to an O.D600 of 0.7. Appropriate dilutions of the cells were then plated on SC-Leu and SC-Leu-Arg+canavanine ([…]) to obtain the number of viable cells (Nt) and the number of canavanine-resistant cells (r), respectively. Using the Lea and Coulson method, the number of mutations (m) per colony was derived from the number of canavanine resistant-colonies (r) across parallel cultures, using the following equation: […]. The m values were then used to calculate the mutation rate, M, using the following equation: M = m/Nt, where Nt is the average number of viable cells per plating. The different M values were sorted to obtain the median. […]

[8] = footnote c: generation time in liquid selective media lacking histidine relative to cells expressing WT PCNA, average of at least 3 independent experiments

| Molecule | Binding of PCNA Mutants to Target Partners: Msh6 (Y2H) [1] | Binding of PCNA Mutants to Target Partners: Pol32 (Y2H) [2] | Binding of PCNA Mutants to Target Partners: Ung1 (Y2H) [3] | Binding of PCNA Mutants to Target Partners: Rad30, fold increase or decrease (quantitative Y2H) [4, 8] [fold] | Binding of PCNA Mutants to Target Partners: Rad27, fold increase or decrease (quantitative Y2H) [5] | effect of rad30 deletion on strain growth sensitivity phenotype ([6]; Figure 6B) | Spontaneous Mutation Rate Can^R (Fold Increase) [7] [fold] | Binding of PCNA Mutants to Target Partners: Pol32, fold increase or decrease (quantitative Y2H) [2, 8] | Binding of PCNA Mutants to Target Partners: Rad30 (Y2H) [4] | Binding of PCNA Mutants to Target Partners: Rad27 (Y2H) ([5]; YRG2 strain, growth on selective agar plates lacking histidine, growth similar to WT PCNA denoted as 1) | effect of overexpression of Rad27, Rad30, Pol32, and Msh6 on growth sensitivity to DNA damaging agents [6] | Fold Increase Relative to WT (mutation rate, CAN1 locus) ([7]; Table 2) [fold] | effect of rad27 deletion on growth sensitivity of the mutant strain ([6]; Figure S8, parent vs rad27-deleted strains) | Mutation Rate (CAN1 locus) ([7]; Table 2, median, brackets = 95% confidence interval, at least 25 independent determinations) |
| --- | --- | --- | --- | --- | --- | --- | --- | --- | --- | --- | --- | --- | --- | --- |
| B1 | 1 | 1 | 1 | 1.6 | 0.5 ^c fold | suppression | 15.3 | – | – | – | – | – | – | – |
| B2 | 1 | – | 1 | – | – | – | 13.3 | 1.5 ^c fold | 1 | 1 | did not reduce the growth sensitivity | 13 | – | – |
| B3 | 1 | 1 | 1 | – | 1.5 ^c fold | – | 8 | – | 1 | – | did not reduce the growth sensitivity | – | only weak effect | 1.2×10^−6 [8.0, 13.9] |
